From the NTF2 design screens of Basanta et al. (2020)

Assay: protease stability score; higher = more stable; yeast display proteolysis, trypsin and chymotrypsin;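 also: log10 excess protease needed over predicted unfolded state with 0 meaning unfolded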

Point of comparison: “DEETAQKIVEKLATGDEEQKREQMDKDVTVVIGDKELRGRETIVNQLRKIRKQVDHLEVKTYSAHNGRAEIVMRMQVNGRTMEYSIRVQVHNGRIQHIKFRVRNHEVQELLDRLLS”, protease stability score 0.464. Against it:
- DEESREQQVHHMMEAIKTGDEDRARTLMDKDASLQVGDKVFQGRKEAAKAVSEIVRRVDRFRVDSVTVSGNQVDAKVQFEVNGRNMQATIRIQMHNGRIQHLVIEFRDPNQYREVKK — higher, 1.05
- DEESRRKQAQEFNENLEQGNFEELMKLLDPNAHIIIGEKEVKGREDIRKQQEEDQRRIDHVQIQSVTAHGDKIRALIRFTVNGQQTEVHVVLSFHNGRVKEMKIHTK — lower, -0.324
- DEESVQTFAQQRRQGNFEELIKMMDPNVEMKVGDKTWTGREQVQTALEHLKERVDRIQIDHMDVKGNHVDIDYVLNFNGRNVKATQKIEMKNGSAKRIQIDATNEENEKELKKAFS — lower, -0.163
- DEETAEQVMRELNRLLKNGNPDEMMTMMDKDARIEVGDKTYHGRDDIRRQNKEDRRRVDRFEVTSVDVRGDKADIDARFQFNGKTKRYQLFAKFHNGRVKHLEIEDK — lower, 0.034
- DEETDAKKAKDDMQHVANTNNPKDRETLLDENAEIVVGDEKYQGRHDVQKLNQEIEKRVDEVRVEVTEVTIQGDKLHVDAVFRVRVNGKTEQDRKVIVMDIHNGSVKVRFIHQP — higher, 0.94
- DEETDEKVAKTLMRIMRTGDPKQYADQADEEVRVVVGDQTYTGRESVSEAFEEWTERVDHLEIKDIRVHGEKVNIDAVVDINGHQRKIEFSMTLHNGRIKELVYTDG — lower, -0.598
- DEETEDKARRFVEAFHTGDPKNINRLMDKDARMKYGDTTVHGRHQIDKWIKELKDEIRIELDRVEIRADNGRVTAELDMVFDVNGKPVKHTLVFIFQFHNGRMHEVKIRIDEDVLRKLKR — higher, 0.746
- DEETHANEFLKTREKALTSNDETELRRLVPPDVRFQVGDKQIHGREEWARKLKDDRTRVDHVTVRVVSITVRPNHIKVNLQEEVVVNGTRSRDRYEAHIVNENGHMQMHSFRQQ — lower, -0.396
- DEETIKHLVKVLEDGDKKRFQKLADPNVRMRVGDKQVHGREKAATLWQHFMDSVDHFFIDHVHIDGEKAHIRADLVVNGQRDTVSIDIKVHNGRIKDVVLRFRDPDYKRKVEKVLG — higher, 1.56
- DEETIRHEARKFQEDMKDGNHDEAVKYAPPNVKIQIGDKTFHGREQMKRFFKELRDEIDHVDLEHVTFHNGRLRVEVRFKINGQDFQVVFYFNYHNGQIENFKVQYRNEEEQQKVEG — lower, 0.182
- DEETKAHKWAEKFQRALKDGDPKKMENLMDKNVKAQYGDKTIHGDEEANSWVRRMKHQVDHVSATITRVEADNGKVIVRMTVVVDHNGREQRYEVNLEAKDHNGHIHLTRLKVG — lower, 0.262
- DEETKAREFIKKVQNVMRTNNPEDFVKQFDPNARMVVGDKSYHGRDDVRKWAQDLFRRADHVSMSVKRLSVHNGRFHMQADLEVHVNGHREEVKVVMNAKDENGQILIKHARFE — higher, 1.77
- DEETKARHQIKHMNKLAQTGQLHEVAKQADPNAEFRIGDKTLRGRDNFVRQVKETADTVDHFDVQVRRVHVKGDKAKANIDLRFDVNGKQERRTLRFSAVMDNGEVVVRFMQIN — lower, -0.03
- DEETKDWVDRFFQALHKNNEEELEQLMDPNAHINIGDKVWHGREEFRREHERQAKHWRFTQDITRIDVKGNKARLRVRFRMNYDGKPKDSKARIEIIIHNGKLKEYRQKDDG — lower, 0.351
- DEETLHDVLRHLKHGDPDTIDRMADENAKAVIGNQEIHGREEISKIAKDLERKVDHQEVHKVEIDGDKATVTYRQNVNGRTVYMYVIVQNHDGHIKYVVIKARDEDEMRKWEENLS — higher, 0.742
- DEETLRQANRKIQEFLSTNNFDELAKQMDKDVQIRIGDKEVHGRKDAQKMLTDIKDDADHASVHHVDVRGDKAKVRFEVNHNGSVKDVTVTITFHNGRIKRAKWHDT — lower, 0.089
- DEETNKKFASELVHVLRTGDDERLKSMADENATLEVGDKTFHGREEMRKAAEEWQKEIDDLKIESLHVNGDKVVIHFVFTVNGRTDRQIMHLHFDNGKIKSAKMHSG — higher, 0.96
- DEETNQELLERLIDLISHGDEDEFNRQADEEAKAQYGDTRYHGREEVVKAIKTLADRVDHWHIESYHVHGNEMVIDMRWTVNGRTRRANIVMEAENGRIKYVQMDDQ — higher, 0.765
- DEETQFKKLMETMKEQNKRGDPRKHEEYVDPNAKVRVGDQDLHGREDVRRVLQEWAERADHVDLKVESMSVHNGKQTAIMVIVLRYNGRNETRRVQVVFDKSNGTVRLVNLRNS — higher, 0.856
- DEETQNTRMEEFFKALKTGDEDRAVELADENVKIEIGDRSVSGREVVRHYVQDFQRRVDHNEIKSMRVHNGRAEVTMVVNHNGTTDTRVVHLEAENGRVRRISVDHP — lower, 0.448
- DEETRKRVETLLEALETGNPEEISKQIDPNATVVVGDKTLHGREDIRDWVRRQHEKIRVEYKHVQIRIHNGRAHVTFEAVVEVNGKPKTVRAQMVFTVSNGKFQHIELHLDEEWKKMEKG — higher, 1.38
- DEETTDILNELLRAYQNNDSKRIVELADPNASANIGDKQYHGMEDAARTQVKRMRQIHVEIKHVSSDNQGEKIELEMRFVDNHNGKPEQSTRNMTVVMKNGKVDKFTIRDDG — lower, 0.085
- DEEVADNFRKLLHNLEQGDKRRVKEMVDENAHIVVGDKVYHGWETAAQDLVRLMHEIHFTITSVHVEVSNGRVRLKVHMKINVNGKPFRMVFTQEIEAENGTVKYINVQFDPEVLRRIES — higher, 0.97
- DEEVAEQAAKLLEHNDFEKLVDMVDPNVDVEYGDKTVSGRNRVKRVMEKWTRRYDHYEIHTYSISNGRLSADVRAVVNGREVRYVQTIRVHNGRIQKMKIDVTDEDDERNLRKLES — lower, -0.161
- DEEVAKKMMEAWMKALQNGNDEQMKKLYDPTVRWEDGNTEKQGLEVVVKLVQTVKKKGIEFQVRKAKVKGNQVEVHYDMKVGDDTVTFTVQFRAQGGRIQEVRVEISEEARKAVKKG — higher, 1.22
- DEEVAKKMMETWQKVVQKGNDKDARELYKPNGEWVDGDEKHQGVDYVVKALQRVKKYGAEFQVRKAKVEGDTATMVYDLRIGDKTVTFVVQMQADGGRVERVQVKMNEEAKKAVTHG — higher, 0.786
- DEEVAKRMAETWVKAVEKGDTDQVQKVYKPNVEWVAGDEKHQGVEVVKKMMQKVKKLGVEFQLRKRKVEGGTVEFHYDMKNGNDTVTFTVRIDAEGGRVDRVEVEFDEKAQKVVKKG — lower, 0.183
- DEEVAKTMAEQWIKAVQKGDKEKLVKHYKPNVQWIDGDERTQGTDVVRKVMETAQKRGVEFQVRKRKVEGDQFEIVYDANVGNKTATFDIKFQVKGGKMEEMRVEVDERAKKVRKEG — lower, 0.094
- DEEVANTAVKVAQTGDFQQMVEHADPNVRAVVGDKEYHGREQFQEAMTIIRERVDHYHVDKITIEGDDVRVDMQIDFNGRRVRAEVSIRASNGRIKEMHINARDEDDHRTLRKLLK — lower, 0.432
- DEEVAQDVRRNVERGDWKRWAELADENARVSVGDNTYEGRNDWHKYVKDLEHQVDHFEVKHITIENGKIKVDFVLTVNGHEVRMKQVIVVTNGRISRLRIQATDTDVQRQLNEAMR — lower, -0.066
- DEEVAREMMTKWMRAVQKGDPDTVDKIYNPNGKWKAIDTERQGSEHIKKVMQRVKKQGVEFQVRKAKVEGNQAVVIYDFKLANKTVTFTVELRVQGGRVKEVRVEVDEEAKKDMKKG — higher, 1.14
- DEEVEDLYQKIKRAQETGDHKQLRDNFDEEVRIKVGDKTIHGMTRAAKKITREWRHINIDVKVEHVQISNGRLRVRYRFVENDNGKPKTTAANFSMEAHNGRVKHVHVQDDS — lower, 0.112
- DEEVEEQVKELKRILETGDEDRMQENADPNVRAVYGNKEIHGRDQLREEIRSLKDEMRYEVEIKDYRIRPNEADVRATWHMRVNGQPMRQEVKVKIKFHNGKLKVFVLDFDEEHEKRSRK — lower, -0.054
- DEEVEEVIHRLVKALRTNNPDQVNQQLDKDARIKVGDKEIQGRDRYKRTVEQKIQEMNFHIHIKRLEVQGDKVRITAQESSEHNGQPRQRRLKFELRVKNGRVKSAEYHVDK — lower, 0.183
- DEEVEHQFRTYERALRQGDEQELRDQVDKNAEIEYGDRKIHGMDRAARKIARRVRELRVEDNFVSLEVKENHVQKNVDVVIEVNGRPVRFRADMQVQVHNGKVKEIRVQVPEEVQKRVKE — lower, 0.127
